Assay [1] concerns the target T1, human FcRH5 protein fragment (soluble) (human, UniProt Q96RD9 16-851).
T1 construct: whole entry named; also called soluble human FcRH5; Human FcRH5 (BIACORE analyte)
T1 sequence: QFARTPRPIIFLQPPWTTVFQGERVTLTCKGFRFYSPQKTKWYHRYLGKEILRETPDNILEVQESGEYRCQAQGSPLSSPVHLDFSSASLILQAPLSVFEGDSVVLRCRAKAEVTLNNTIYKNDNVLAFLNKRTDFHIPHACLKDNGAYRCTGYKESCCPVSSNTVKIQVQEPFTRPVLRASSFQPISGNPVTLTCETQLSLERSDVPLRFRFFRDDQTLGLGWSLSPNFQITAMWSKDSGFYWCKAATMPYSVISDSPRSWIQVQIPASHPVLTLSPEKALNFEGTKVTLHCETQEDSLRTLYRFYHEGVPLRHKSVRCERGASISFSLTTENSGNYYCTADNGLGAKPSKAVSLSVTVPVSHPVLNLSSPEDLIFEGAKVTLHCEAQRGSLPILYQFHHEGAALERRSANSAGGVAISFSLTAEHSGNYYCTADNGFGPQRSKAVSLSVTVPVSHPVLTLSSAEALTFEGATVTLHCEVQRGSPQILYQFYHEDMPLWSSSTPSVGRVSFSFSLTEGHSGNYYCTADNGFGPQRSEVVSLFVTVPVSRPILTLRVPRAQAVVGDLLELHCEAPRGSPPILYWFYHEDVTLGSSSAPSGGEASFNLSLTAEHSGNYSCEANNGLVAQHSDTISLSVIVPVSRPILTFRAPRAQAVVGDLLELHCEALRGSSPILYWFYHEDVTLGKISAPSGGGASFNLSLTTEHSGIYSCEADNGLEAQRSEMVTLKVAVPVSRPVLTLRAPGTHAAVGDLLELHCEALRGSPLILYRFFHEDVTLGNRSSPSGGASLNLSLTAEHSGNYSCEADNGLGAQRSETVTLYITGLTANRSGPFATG
Nature of the assay: SPR, hIgG capture, screening. Here is the method:
(§1) Briefly, a human IgG capture surface was generated on a Series S CM5 chip using amine coupling and the human IgG capture kit (GE Life Sciences, Piscataway, NJ). Test antibodies were then captured on flow cells 2, 3, or 4, with flow cell 1 used as a reference. An FcRH5 protein fragment was used as the analyte, with a flow rate of […]. Between injections the capture surface was regenerated by a 30-second injection of 3M magnesium chloride or 10 mM glycine, pH 1.5. Interactions were assessed at 25° C. in 10 mM HEPES pH7.4, 150 mM NaCl, and 0.05% Tween 20 (HBSP). Reference data from the reference flow cell and from injection of buffer alone were subtracted prior to kinetic analysis. Kinetic information was calculated by fitting data to a 1:1 binding model. Reference subtraction and data fitting were performed using BIAevaluation software (GE Life Sciences, Piscataway, NJ).
(§2) For affinity screening of HVR-H2 Trp52 and Met64 variants (Table 7), antibodies were expressed by transient transfection of Expi293 cells and purified using tip columns that were custom packed with affinity resin MabSelect SuRe (Glygen Corp., Columbia, MD & GE Life Sciences, Piscataway, NJ). […] Binding of FcRH5 protein fragment to captured antibodies was monitored at 100 nM and 500 nM. Association and dissociation were monitored at a flow rate of 40 μl/min, for 180 s and 300 s, respectively.
In general terms: Surface plasmon resonance follows binding to a sensor surface in real time, without labels.

In assay [2] the target is T1, human FcRH5 protein fragment (soluble). Description: SPR, hIgG capture, 1:1 model. How it is done:
as §1
(§3) Kinetic characterization experiments were carried out (see Table 8). In these experiments, binding of soluble FcRH5 protein fragment to purified antibodies in human TDB antibody format was analyzed at six different non-zero concentrations (a 1:3 dilution series, one concentration injected twice as a replicate). Flow rate was set at 40 μl/min and association and dissociation monitored for 600 s.

The target in assay [3] is T2, cynomolgus FcRH5 protein fragment (soluble) (cynomolgus monkey).
T2 construct: whole entry named; also called Cyno FcRH5 (BIACORE analyte)
T2 chain: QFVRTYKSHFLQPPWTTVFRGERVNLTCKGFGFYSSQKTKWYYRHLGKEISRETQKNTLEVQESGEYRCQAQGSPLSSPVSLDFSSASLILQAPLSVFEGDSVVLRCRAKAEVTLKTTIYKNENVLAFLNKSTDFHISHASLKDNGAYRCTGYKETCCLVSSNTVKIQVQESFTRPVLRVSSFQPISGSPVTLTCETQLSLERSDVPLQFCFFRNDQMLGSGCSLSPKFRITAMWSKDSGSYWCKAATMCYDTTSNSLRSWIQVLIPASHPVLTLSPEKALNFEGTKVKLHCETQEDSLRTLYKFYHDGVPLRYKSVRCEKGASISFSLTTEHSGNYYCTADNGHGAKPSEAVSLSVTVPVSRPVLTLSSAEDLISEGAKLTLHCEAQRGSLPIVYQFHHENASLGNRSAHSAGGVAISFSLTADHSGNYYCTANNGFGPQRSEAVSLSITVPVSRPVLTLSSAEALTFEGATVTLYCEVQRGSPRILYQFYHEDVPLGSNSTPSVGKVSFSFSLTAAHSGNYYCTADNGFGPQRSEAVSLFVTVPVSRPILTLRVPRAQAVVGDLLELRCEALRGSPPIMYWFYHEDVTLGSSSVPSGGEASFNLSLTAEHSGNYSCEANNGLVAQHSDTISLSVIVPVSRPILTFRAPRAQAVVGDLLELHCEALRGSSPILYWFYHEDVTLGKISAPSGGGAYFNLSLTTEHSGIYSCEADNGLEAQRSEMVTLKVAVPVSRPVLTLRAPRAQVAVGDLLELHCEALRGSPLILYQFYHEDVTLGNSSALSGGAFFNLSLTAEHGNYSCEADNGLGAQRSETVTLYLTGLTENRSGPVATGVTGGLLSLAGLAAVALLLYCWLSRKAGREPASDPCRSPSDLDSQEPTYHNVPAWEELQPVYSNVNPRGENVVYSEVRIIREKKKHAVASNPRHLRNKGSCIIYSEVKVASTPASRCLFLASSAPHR
Nature of the assay: SPR, hIgG capture, 1:1 model. How it is done: as §1, §3

For assay [4], the target named is T1, human FcRH5 protein fragment (soluble). Nature of the assay: BIACORE, human IgG1, soluble human FcRH5.
For assay [5] the target is unchanged. Nature of the assay: SPR (BIACORE), IgG captured via anti-human IgG, FcRH5 protein fragment as analyte (100 and 500 nM). How it is done: as §1, §2
Assay [6] addresses T3, human FcRH1 (full-length, on SVT2 cells) (human, UniProt Q96LA6 17-429).
T3 construct: whole, on cells; also called SVT2-FcRH1
T3 sequence (looked up): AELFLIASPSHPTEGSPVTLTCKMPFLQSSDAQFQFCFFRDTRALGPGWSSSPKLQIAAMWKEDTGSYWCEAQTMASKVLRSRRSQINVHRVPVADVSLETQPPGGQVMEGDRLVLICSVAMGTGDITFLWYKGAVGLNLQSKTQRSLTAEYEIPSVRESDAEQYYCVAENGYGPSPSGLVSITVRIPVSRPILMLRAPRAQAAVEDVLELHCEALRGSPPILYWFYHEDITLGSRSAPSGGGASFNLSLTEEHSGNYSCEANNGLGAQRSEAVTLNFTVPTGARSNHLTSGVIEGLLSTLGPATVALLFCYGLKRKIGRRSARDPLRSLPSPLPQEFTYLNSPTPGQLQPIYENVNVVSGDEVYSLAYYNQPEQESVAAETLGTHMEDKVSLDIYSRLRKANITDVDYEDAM
Nature of the assay: FACS, SVT2 cells. Here is the method: (§4) Human FcRH5, cyno FcRH5, human FcRH1, FcRH2, FcRH3, and FcRH4 transfected mouse SVT2 cells were used to test binding and cross-reactivity of FcRH5 TDBs. The method was carried out as follows. Cultured SVT2 cells were lifted using non-enzyme cell dissociation buffer (Sigma, #C5914). 1×10⁵ cells were suspended in 100 μL and incubated with FcRH5 TDBs at 3 μg/ml. […] Cells were washed twice with FACS buffer before flow cytometry analysis was carried out on a FACSCalibur.

In assay [7] the target is T4, human FcRH4 (full-length, on SVT2 cells) (human, UniProt Q96PJ5 20-515).
T4 construct: whole, on cells; also called SVT2-FcRH4
T4 sequence (looked up): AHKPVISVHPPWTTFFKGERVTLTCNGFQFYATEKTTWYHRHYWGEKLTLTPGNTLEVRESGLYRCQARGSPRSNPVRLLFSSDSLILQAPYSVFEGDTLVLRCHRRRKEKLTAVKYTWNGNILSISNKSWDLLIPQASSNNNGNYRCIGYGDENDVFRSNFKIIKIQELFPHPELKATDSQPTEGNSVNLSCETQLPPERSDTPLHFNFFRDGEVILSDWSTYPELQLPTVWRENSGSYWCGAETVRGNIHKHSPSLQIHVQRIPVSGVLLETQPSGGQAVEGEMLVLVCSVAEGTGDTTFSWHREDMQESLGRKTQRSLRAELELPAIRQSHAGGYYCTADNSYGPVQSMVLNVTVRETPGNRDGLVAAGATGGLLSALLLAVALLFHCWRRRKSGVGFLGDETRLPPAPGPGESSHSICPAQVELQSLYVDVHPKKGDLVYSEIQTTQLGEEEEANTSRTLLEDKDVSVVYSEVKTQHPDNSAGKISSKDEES
Description: FACS, SVT2 cells. How it is done:
as §4

Assay [8] has as its target T1, human FcRH5 protein fragment (soluble). Nature of the assay: BIACORE, TDB format.

Substitutions are numbered along the chain they refer to. Numbers in names are those of the source.

What is called Kd is the concentration at which binding is half-saturated. A lower Kd goes with a tighter complex. The koff is the first-order rate constant of dissociation. A lower koff goes with slow dissociation. Broadly, the kon is the rate constant with which the complex forms. Higher therefore signals faster complex formation.

B1: hu1G7.v85 (hIgG1) (antibody, V domains shown)
VH: EVQLVESGPGLVKPSETLSLTCTVSGFSLTRFGVHWVRQPPGKGLEWLGVIWRGGSTDYNAAFVSRLTISKDNSKNQVSLKLSSVTAADTAVYYCSNHYYGSSDYALDNWGQGTLVTVSS
VL: DIQMTQSPSSLSASVGDRVTITCKASQDVRNLVVWFQQKPGKAPKLLIYSGSYRYSGVPSRFSGSGSGTDFTLTISSLQPEDFATYYCQQHYSPPYTFGQGTKVEIK
notes: bivalent hIgG1; also called hu1G7.v1.4.M64V
B1: the Kd in assay [1] amounted to 2.5 nM; in assay [2] it was 2.5 nM; in assay [3] it was 7.2 nM; in assay [4], 0.8 nM; in assay [5] it was 2.5 nM. Moreover, the off-rate (koff) in assay [2] is 0.002 s⁻¹; in assay [3] it was 0.001 s⁻¹. Moreover, the kon in assay [2] stood at 600000 M⁻¹ s⁻¹; in assay [3], 100000 M⁻¹ s⁻¹. In assay [4], the “Fold improvement over hu1G7.v1” value was determined as 17 fold.

B2: hu1G7.v1.4 (hIgG1) (antibody, V domains shown)
VH: B1 VH with V64M
VL: B1 VL
notes: hIgG1
B2: in assay [2], the affinity, expressed as Kd, was 2.6 nM; the koff stood at 0.002 s⁻¹; the kon came out at 700000 M⁻¹ s⁻¹. In assay [3], this molecule returned a dissociation constant Kd of 7.7 nM, a koff of 0.001 s⁻¹ and an on-rate (kon) of 100000 M⁻¹ s⁻¹.

B3: hu1G7.v93 (antibody, human IgG1, V domains shown)
VH: B1 VH with L29T, S103P
VL: B1 VL with R30S
notes: human IgG1
With B3, in assay [4], the “Fold improvement over hu1G7.v1” value came out at 25.3 fold, the “Fold improvement over hu1G7.v86” value turned out to be 2.5 fold and the Kd stood at 0.6 nM.

B4: hu1G7.v92 (antibody, human IgG1, V domains shown)
VH: B1 VH with S103P
VL: B1 VL with R30S, A43S
notes: human IgG1
On to B4, for which, in assay [4], the “Fold improvement over hu1G7.v1” value came out at 15.9 fold, the “Fold improvement over hu1G7.v86” value turned out to be 1.5 fold and the Kd is 0.9 nM.

B5: hu1G7.v1.5/38E4.v1 TDB (bispecific antibody, V domains shown)
VH 1: B1 VH with V64M
VL 1: B1 VL with R30S, L32I, A43S, S52Y, S56T, H91Q, Y92F, S93Q
VH 2: EVQLVQSGAEVKKPGASVKVSCKASGFTFTSYYIHWVRQAPGQGLEWIGWIYPENDNTKYNEKFKDRVTITADTSTSTAYLELSSLRSEDTAVYYCARDGYSRYYFDYWGQGTLVTVSS
VL 2: DIVMTQSPDSLAVSLGERATINCKSSQSLLNSRTRKNYLAWYQQKPGQSPKLLIYWTSTRKSGVPDRFSGSGSGTDFTLTISSLQAEDVAVYYCKQSFILRTFGQGTKVEIK
notes: knob-into-hole TDB; also called 1G7.v1.5 TDB
Take B5: the binding result in assay [6] and in assay [7] was “no binding (tested: 3 µg/ml)” each time. Also, in assay [8], the affinity, expressed as Kd, was 1.1 nM.

B6: hu1G7.v91 (antibody, human IgG1, V domains shown)
VH: B1 VH with L29T
VL: B1 VL with R30S, A43S
Regarding B6, the Kd in assay [4] was determined as 0.7 nM.

B7: hu1G7.v86 (antibody, human IgG1, V domains shown)
VH: B1 VH
VL: B1 VL with R30S, A43S
notes: human IgG1
As for B7, in assay [4], the “Fold improvement over hu1G7.v1” value stood at 10.3 fold and binding was characterised by a dissociation constant (Kd) of 1.4 nM.

B8: hu1G7.v1.7/38E4.v1 TDB (bispecific antibody, V domains shown)
VH 1: B1 VH with L29T, V64M
VL 1: B1 VL with S52Y, S56T, S93Q
VH 2: B5 VH 2
VL 2: B5 VL 2
notes: knob-into-hole TDB; also called 1G7.v1.7 TDB
As for B8, the binding result in assay [6] and in assay [7] was “no binding (tested: 3 µg/ml)” each time. For the same molecule, the Kd in assay [8] was 0.6 nM.

The values are drawn from US20240383984A1 (Genentech, published 2024).
